In US7452690:

Test system: PL-FXa-b2AR fusion protein (ED-FXa cleavage site-beta2-adrenergic receptor) expressed on transiently transfected HEK293 cells

Substance: Factor Xa
- EFC activity as relative luminescent units (RLU): a difference in about 30000 RLUs was observed over a range in concentration of FXa of about 10^-3 to 10^1 µg/mL
- readings (chemiluminescence, β-galactosidase enzyme fragment complementation after cleavage): the transiently infected cells showed an increase in the readings from 0.01 ng/well to 1000 ng/well of Factor Xa
